Values quoted from earlier work as cited in article PMC11145553.

Target: LRP1 (Homo sapiens) (UniProt Q07954)
Sequence (Q07954 20-4544): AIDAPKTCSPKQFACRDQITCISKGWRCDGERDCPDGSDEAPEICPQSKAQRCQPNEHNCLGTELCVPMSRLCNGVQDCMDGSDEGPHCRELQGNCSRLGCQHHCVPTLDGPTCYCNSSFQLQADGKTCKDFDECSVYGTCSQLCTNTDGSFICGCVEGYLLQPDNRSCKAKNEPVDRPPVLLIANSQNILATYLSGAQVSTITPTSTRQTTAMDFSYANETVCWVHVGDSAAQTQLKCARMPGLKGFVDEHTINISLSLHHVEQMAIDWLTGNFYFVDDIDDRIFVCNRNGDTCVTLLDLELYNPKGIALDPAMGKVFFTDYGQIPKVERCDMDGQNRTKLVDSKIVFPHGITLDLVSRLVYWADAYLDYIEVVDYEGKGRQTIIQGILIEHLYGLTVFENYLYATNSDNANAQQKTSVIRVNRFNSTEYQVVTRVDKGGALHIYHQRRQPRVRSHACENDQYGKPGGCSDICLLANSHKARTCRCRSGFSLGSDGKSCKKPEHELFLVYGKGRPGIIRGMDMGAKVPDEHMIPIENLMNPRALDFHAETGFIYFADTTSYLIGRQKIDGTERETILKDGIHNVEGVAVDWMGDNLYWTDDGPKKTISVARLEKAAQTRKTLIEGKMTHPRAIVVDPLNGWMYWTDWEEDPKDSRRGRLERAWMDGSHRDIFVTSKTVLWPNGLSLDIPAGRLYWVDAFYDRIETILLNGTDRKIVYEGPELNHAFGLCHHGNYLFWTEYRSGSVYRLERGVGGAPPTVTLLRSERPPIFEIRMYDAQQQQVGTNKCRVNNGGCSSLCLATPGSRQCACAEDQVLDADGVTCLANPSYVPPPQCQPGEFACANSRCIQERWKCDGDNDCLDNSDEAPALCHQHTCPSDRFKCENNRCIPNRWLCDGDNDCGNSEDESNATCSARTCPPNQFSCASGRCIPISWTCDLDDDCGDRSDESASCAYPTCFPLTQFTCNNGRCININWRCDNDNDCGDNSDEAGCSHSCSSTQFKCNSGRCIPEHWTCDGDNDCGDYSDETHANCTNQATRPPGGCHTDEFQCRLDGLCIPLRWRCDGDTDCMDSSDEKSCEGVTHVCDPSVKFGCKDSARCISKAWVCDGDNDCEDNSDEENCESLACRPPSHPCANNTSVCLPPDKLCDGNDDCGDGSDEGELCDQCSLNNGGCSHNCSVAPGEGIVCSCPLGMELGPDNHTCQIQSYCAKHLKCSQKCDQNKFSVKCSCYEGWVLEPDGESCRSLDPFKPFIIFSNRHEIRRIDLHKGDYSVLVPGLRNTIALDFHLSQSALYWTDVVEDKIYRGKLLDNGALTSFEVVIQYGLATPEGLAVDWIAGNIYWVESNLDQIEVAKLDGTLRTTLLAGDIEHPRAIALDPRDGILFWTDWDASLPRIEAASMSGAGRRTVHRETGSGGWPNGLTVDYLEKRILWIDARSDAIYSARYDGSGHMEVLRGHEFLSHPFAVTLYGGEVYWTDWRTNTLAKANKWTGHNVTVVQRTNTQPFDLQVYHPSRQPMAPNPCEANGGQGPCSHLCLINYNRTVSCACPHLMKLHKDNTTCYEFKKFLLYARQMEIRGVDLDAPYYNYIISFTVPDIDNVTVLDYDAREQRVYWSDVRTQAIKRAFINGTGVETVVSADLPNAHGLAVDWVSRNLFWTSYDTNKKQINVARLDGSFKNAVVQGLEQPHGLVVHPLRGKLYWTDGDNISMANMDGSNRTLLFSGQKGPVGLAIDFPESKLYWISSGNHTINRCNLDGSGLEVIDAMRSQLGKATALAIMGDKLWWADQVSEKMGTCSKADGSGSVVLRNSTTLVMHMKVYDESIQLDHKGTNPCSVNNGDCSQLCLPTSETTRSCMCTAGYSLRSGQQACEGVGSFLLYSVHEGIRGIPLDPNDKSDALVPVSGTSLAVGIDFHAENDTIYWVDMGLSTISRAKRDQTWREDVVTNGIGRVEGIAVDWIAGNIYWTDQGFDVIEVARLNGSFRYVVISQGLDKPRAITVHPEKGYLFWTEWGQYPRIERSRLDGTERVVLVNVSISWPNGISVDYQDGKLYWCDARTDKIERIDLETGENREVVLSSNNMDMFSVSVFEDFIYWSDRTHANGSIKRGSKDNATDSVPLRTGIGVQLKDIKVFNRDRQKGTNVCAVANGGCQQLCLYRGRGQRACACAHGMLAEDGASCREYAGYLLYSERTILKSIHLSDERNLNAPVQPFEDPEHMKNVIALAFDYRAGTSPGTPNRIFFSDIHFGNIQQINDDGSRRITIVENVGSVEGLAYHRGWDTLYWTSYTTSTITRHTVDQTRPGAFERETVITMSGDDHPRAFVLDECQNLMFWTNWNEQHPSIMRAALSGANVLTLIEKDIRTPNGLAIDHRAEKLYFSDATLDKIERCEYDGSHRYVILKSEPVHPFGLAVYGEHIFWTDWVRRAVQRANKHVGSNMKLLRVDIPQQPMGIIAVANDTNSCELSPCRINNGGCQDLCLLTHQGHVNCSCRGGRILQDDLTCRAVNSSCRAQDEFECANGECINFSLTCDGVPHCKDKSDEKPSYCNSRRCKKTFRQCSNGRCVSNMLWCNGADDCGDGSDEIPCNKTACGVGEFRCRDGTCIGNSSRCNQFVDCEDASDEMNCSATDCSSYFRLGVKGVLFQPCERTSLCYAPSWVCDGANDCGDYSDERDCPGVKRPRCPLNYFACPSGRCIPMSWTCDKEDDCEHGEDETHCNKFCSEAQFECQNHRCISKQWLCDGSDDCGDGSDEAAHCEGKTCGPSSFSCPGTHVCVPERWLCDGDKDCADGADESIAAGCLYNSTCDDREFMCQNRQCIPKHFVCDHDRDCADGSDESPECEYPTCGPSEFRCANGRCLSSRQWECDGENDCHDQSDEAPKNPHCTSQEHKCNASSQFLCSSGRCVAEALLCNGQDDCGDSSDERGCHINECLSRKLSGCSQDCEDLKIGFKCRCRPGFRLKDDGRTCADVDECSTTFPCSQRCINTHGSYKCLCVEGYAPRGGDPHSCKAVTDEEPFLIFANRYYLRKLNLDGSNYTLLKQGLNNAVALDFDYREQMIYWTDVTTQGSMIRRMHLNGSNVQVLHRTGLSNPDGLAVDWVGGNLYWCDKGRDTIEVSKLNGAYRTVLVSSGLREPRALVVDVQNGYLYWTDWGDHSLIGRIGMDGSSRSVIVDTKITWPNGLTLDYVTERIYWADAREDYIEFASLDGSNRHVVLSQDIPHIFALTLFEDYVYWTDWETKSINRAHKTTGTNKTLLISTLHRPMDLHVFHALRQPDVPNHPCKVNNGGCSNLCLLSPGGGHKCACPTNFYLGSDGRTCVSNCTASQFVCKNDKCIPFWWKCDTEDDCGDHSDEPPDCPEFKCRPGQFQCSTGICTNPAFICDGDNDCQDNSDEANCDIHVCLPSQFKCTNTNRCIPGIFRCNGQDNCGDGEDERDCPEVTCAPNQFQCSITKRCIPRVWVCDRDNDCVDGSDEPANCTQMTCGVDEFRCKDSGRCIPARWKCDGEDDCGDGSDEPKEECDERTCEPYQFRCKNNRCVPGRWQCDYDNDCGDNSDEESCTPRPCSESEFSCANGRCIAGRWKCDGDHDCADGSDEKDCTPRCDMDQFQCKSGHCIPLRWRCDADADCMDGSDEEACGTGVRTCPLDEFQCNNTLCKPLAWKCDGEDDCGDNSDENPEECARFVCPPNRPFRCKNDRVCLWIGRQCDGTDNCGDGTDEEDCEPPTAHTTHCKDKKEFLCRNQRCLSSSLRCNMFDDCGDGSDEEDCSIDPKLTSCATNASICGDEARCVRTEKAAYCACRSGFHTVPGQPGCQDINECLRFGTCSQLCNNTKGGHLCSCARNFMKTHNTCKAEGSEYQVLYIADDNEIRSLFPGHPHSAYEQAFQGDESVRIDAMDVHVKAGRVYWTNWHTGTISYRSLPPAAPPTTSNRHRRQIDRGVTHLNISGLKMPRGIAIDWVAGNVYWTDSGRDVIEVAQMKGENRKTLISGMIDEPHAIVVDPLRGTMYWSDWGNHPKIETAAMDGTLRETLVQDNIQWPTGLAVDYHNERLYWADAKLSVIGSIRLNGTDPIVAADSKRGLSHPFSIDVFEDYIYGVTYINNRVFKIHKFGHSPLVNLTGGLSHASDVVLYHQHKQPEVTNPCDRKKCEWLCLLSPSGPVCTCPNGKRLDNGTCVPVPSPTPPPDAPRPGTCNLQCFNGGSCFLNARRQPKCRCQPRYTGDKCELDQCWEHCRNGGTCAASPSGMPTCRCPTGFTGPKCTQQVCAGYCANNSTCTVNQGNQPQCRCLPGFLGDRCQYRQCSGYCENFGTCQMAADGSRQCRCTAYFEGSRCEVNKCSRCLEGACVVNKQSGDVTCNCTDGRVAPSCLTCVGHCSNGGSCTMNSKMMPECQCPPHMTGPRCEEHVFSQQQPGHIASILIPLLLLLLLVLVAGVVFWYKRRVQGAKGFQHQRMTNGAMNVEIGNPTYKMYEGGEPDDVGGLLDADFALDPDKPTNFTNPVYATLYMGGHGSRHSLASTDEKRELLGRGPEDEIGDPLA

In the case of 2N4R tau (from UniProt P10636), the Kd is listed as 60 nM.
